Results: patent EP2871189A1 (INSTITUT PASTEUR, dated 2015)

Tests used:
[1] = target: recombinant ectodomain of glycoprotein E2 of GB virus (GBV-B) fused to the double Strep-Tag (GB virus (GBV-B)); assay: Western blot
[2] = target: T1, VHH-E9 containing the strep-tag sequence of SEQ ID NO: 13 at the C terminus; assay: ELISA assay after Friguet et al 1985 (method as in the sentence before)
T1 construct: also called Strep-tagged anti-GFAP VHH E9; anti-GFAP VHH E9

B1: monoclonal antibody C23.21 (antibody, V domains shown)
VH: EVQLEQSGPELVKPGASVKMSCKASGYTFTNYYMKWVKQSHGKSLEWIGDLNPNNGDTFYNQKFKGKATLTVDKSSNTAYMQLNSLTSEDSAVYYCARTGRYEENAMDYWGQGTSVTVSS
VL: ELVMTQSPASLAVSLGQRATISCRASESVDSYGKSFMHWYQLKPGQPPKLLIYRASNLESGVPARFSGSGSRTDFTLTIDPVEADDAATYYCQQNNEDPWTFGGGTKLEIK
notes: also called C23-21 mAb; anti-strep tag C23-21 mAb
binding result [1]: binds | Kd [2]: 0.91 nM
